Data as given in article PMC11670113 (Proceedings of the National Academy of Sciences of the …, 2024).

B1: AP-3 δ subunit (residues 1-617), as in the AP-3 core (domain or fragment, human, UniProt O14617 1-617, looked up)
chain: MALKMVKGSIDRMFDKNLQDLVRGIRNHKEDEAKYISQCIDEIKQELKQDNIAVKANAVCKLTYLQMLGYDISWAAFNIIEVMSASKFTFKRIGYLAASQSFHEGTDVIMLTTNQIRKDLSSPSQYDTGVALTGLSCFVTPDLARDLANDIMTLMSHTKPYIRKKAVLIMYKVFLKYPESLRPAFPRLKEKLEDPDPGVQSAAVNVICELARRNPKNYLSLAPLFFKLMTSSTNNWVLIKIIKLFGALTPLEPRLGKKLIEPLTNLIHSTSAMSLLYECVNTVIAVLISLSSGMPNHSASIQLCVQKLRILIEDSDQNLKYLGLLAMSKILKTHPKSVQSHKDLILQCLDDKDESIRLRALDLLYGMVSKKNLMEIVKKLMTHVDKAEGTTYRDELLTKIIDICSQSNYQYITNFEWYISILVELTRLEGTRHGHLIAAQMLDVAIRVKAIRKFAVSQMSALLDSAHLLASSTQRNGICEVLYAAAWICGEFSEHLQEPHHTLEAMLRPRVTTLPGHIQAVYVQNVVKLYASILQQKEQAGEAEGAQAVTQLMVDRLPQFVQSADLEVQERASCILQLVKHIQKLQAKDVPVAEEVSALFAGELNPVAPKAQKKVPV

What was measured:
cryo-EM structure = biological target: the molecule itself; experiment: cryo-EM structure
[1] = biological target: B1; experiment: cryo-EM structure

Binder	binding result (cryo-EM structure)	binding result [1]
B1	binds	–
full-length, myristoylated Arf1-Q71L (enzyme, myristoylated) not shown	–	binds
